# Data from paper PMC3988998, “Molecular Mechanism of Antibody-Mediated Activation of β-galactosidase” (Structure(London, England:1993), 2014).
# B1: scFv13R4 (scFv, V domains shown)
# VH: EVQLVESGGSLVKPGGSLRLSCAASGFTFSNYSMNWVRQAPGKGLEWISSISGSSRYIYYADFVKGRFTISRDNATNSLYLQMNSLRAEDTAVYYCVRSSITIFGGGMDVWGRGTLVTVSS
# VL: QSVLTQPASVSGSPGQSITISCAGTSSDVGGYNYVSWYQQHPGKAPKLMIYEDSKRPSGVSNRFSGSKSGNTASLTISGLQAEDEADYYCSSYTTRSTRVFGGGTKLAVL
# notes: model of the complex deposited as PDB 4CKD, built by docking the HyHEL-10 Fv of PDB 3A6B; 28 kDa single-chain Fv selected for cytoplasmic expression (Martineau et al., 1998); The preparation held GroEL as an impurity; also called Fv antibody; source: E. coli strain PM12 (BL21 (DE3) pLysS with a lacZ:Tn5 mutation), pET 16b, purified (nickel-nitrilotriacetic acid column)
# Molecular target: T1, Escherichia coli β-galactosidase (E. coli, UniProt P00722 = β-galactosidase)
# T1 construct: β-galactosidase of E. coli, encoded by lacZ; Wild-type commercial enzyme; source: bought: Sigma catalog no; G3153
# Assay: cryo-EM structure; β-gal mixed with scFv13R4 in a 1:10 stoichiometric ratio (2.5-fold excess), 1 hr on ice; single-particle cryo-EM, map at ~13 Å; rigid-body docking of β-gal (1F4A) and of the HyHEL-10 Fv (3A6B)
# Details: both partners purified
# T1 sequence (P00722 whole entry): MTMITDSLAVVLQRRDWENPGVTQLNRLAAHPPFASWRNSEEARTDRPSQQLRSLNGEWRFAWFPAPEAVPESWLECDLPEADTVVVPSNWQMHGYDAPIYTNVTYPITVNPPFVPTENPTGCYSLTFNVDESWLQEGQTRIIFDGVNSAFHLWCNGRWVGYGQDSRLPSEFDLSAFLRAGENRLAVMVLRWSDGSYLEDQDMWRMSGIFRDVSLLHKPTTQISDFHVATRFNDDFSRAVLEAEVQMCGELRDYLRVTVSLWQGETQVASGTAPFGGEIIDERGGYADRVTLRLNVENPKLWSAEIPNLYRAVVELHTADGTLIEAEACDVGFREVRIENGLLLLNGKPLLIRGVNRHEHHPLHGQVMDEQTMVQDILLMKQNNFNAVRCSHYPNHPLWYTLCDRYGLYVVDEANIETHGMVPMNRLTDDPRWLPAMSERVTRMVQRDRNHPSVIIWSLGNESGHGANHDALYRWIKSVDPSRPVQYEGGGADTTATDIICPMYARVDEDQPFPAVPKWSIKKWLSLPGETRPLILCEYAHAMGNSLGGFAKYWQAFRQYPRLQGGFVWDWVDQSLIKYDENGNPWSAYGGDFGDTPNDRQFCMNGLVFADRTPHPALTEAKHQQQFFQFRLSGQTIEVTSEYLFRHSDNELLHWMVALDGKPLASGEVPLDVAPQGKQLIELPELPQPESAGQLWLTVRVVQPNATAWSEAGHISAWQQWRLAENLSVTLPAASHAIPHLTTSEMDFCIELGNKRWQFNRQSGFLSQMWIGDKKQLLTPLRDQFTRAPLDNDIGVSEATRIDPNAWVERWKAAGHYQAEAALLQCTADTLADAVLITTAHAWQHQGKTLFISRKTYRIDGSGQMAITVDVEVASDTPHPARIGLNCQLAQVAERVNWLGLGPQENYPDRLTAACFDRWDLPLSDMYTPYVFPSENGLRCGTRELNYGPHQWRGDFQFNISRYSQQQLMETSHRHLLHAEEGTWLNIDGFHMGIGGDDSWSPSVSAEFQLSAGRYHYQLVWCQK
binder,measurement,value
B1,stoichiometry N,1 Fv per β-gal subunit
